The subject of one assay is iNKT cells. The experiment in a line: In vivo activation of iNKT cells by i.p. glycolipid injection; serum cytokines by capture ELISA. The conditions noted are these: C57BL/6 mice, i.p. 4 nmoles. An excerpt:
(§1) Figure 1 Synthetic Analogs of αGalCer (A) Structures and nomenclature of iNKT cell-activating αGalCer analogs used in this study. The nomenclature used in most cases is based on the identity of the amide-linked acyl group in the ceramide moiety. Acyl carbon chain length and number of unsaturations are indicated by the names of most analogs, with exceptions being OCH (which has a C24 saturated acyl chain) and the compounds with amide-linked prostaglandin B1 (PGB1) or 4-fluorophenyl acetate (4FPA) groups. The phytosphingosine base is 18 carbons in length for all analogs except OCH, which has a nine-carbon base. (B) Hybridoma DN3A4.1-2 (Vβ8.2^+) was stimulated with each of the αGalCer analogs at a range of concentrations with JAWS II cells as APCs, and the amounts of IL-2 production were analyzed. Potencies of glycolipids are shown as 1/EC50 (as defined in Figure S1). […] Concentrations of IFN-γ, IL-4, and IL-12p70 were determined in serum by capture ELISA. “ND” stands for not detected. […]
(§2) For in vitro stimulation, murine iNKT hybridomas at 5 × 10^4 cells/well in 96-well plates were stimulated with an equal number of either JAWS II cells or transfected A20 cells in complete medium with glycolipids for 12 hr at 37°C, and levels of murine IL-2 secretion were determined. […] Subsequently the levels of IL-4, IL-13, and IFN-γ in culture supernatants were quantified by capture ELISA. […]
On the technique in general: ELISA stands for enzyme-linked immunosorbent assay.

The next assay deals with BALB/c splenocytes. The assay can be described thus: Mouse splenocyte stimulation with glycolipids, IL-4, IL-13 and IFN-γ in supernatants. Type of assay: cell-based. Conditions: 48 hr.
Source text: as §1, §2

Another assay addresses T1, mCD1d (Mus musculus, UniProt P11609).
T1 sequence (P11609 22-305 limits assumed): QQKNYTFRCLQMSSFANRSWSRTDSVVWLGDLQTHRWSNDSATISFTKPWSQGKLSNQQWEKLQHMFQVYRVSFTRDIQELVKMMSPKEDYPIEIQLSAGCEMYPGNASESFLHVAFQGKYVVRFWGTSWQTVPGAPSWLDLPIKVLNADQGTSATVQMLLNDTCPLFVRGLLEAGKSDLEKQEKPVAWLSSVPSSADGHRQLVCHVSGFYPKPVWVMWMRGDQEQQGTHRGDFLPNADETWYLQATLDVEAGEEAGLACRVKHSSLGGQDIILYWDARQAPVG
T1 sequence (P01887 21-119 partner): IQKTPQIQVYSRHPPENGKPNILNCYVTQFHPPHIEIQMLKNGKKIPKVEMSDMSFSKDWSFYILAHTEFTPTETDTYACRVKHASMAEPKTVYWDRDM
The assay can be described thus: In vitro CD1d loading assay with immobilized mCD1d, saposins or Triton X-100, DN32.D3 hybridoma IL-2 readout. Format: biochemical. Conditions: saposin 10 μg/ml, glycolipid αGalCer-C26:0. Here is the method: Figure 5 Lack of Detergent-like Cofactor Dependence of Th2 Cell-Type Cytokine-Biasing αGalCer Analogs (A) Glycolipids were incubated for 24 hr at 37°C with murine CD1d proteins in the absence (top row) or presence (bottom row) of 0.05% Triton X-100. The resulting complexes were assembled as tetramers and used for staining mouse iNKT hybridoma DN3A4.1-2. The dashed line histograms show background staining with unloaded tetramers, and the bold histograms show staining with glycolipid loaded tetramers. (B) The same analysis as in (A) except with human CD1d tetramers, which were also used for DN3A4.1-2 staining. (C) Glycolipids at various concentrations were incubated with immobilized mCD1d protein for 2 hr in pH 7.0 or pH 5.0 buffers with no additives (medium) or in the same buffers containing the indicated purified recombinant saposins (10 μg/ml) or Triton X-100 (0.05%). After washing, DN32.D3 iNKT hybridoma cells were added and supernatant concentrations of IL-2 were determined after an additional 14 hr of incubation. All results shown (A, B, and C) were representative of at least two independent experiments.
To extend these observations to a more physiological model, we tested the effects of purified recombinant saposin A, B, C, and D proteins on loading of αGalCer analogs.
Recombinant murine CD1d proteins at 4 μg/ml in 50 μl PBS were coated on the surfaces of microtiter plate wells for 2 hr at 37°C and then washed with PBS for removal of unbound proteins. Subsequently, various concentrations of glycolipids in 0.1 M sodium phosphate buffer (pH 7.0) or 0.1 M sodium citrate buffer (pH 5.0) containing 150 mM NaCl were incubated with or without 0.05% Triton X-100 or recombinant purified human saposins A, B, C, or D at 10 μg/ml for another 2 hr at 37°C. Saposins were produced and purified as described ([Yuan et al., 2007]). After extensive washing with PBS and media, 5 × 10^4 murine iNKT hybridoma DN32.D3 cells were added in 200 μl of complete medium and incubated at 37°C for 14 hr. Supernatants were analyzed for murine IL-2 by capture ELISA.

The results in this text go back to PMC2719696, “Kinetics and Cellular Site of Glycolipid Loading Control the Outcome of Natural Killer T Cell Activation” (Immunity, 2009).

`CCCCCCCCCCCCCCC(O)C(O)C(COC1OC(CO)C(O)C(O)C1O)NC(=O)Cc1ccc(F)cc1` (stereo not drawn) [αGalCer-4FPA]: the “activity in vivo (serum cytokines)” value with iNKT cells is “minimal activity in vivo”. Further, the “Th2 cell-type cytokine bias (ratios of IL-13 or IL-4 to IFN-γ)” value with BALB/c splenocytes is “pronounced Th2 cell-type biasing effect in vitro”.

B1: saposin A: recombinant purified human saposin A (protein, UniProt P07602 60-142, looked up)
Saposin-A: SLPCDICKDVVTAAGDMLKDNATEEEILVYLEKTCDWLPKPNMSASCKEIVDSYLPVILDIIKGEMSRPGEVCSALNLCESLQ
modifications: Saposin-A
As for B1, the “activity of purified saposin in enabling loading of αGalCer-C26:0 onto mCD1d” value (“activity of purified saposin” below) with mCD1d is “minimal or no activity”.

B2: saposin C: recombinant purified human saposin C (protein, UniProt P07602 311-390, looked up)
Saposin-C: SDVYCEVCEFLVKEVTKLIDNNKTEKEILDAFDKMCSKLPKSLSEECQEVVDTYGSSILSILLEEVSPELVCSMLHLCSG
modifications: Saposin-C
B2: the “activity of purified saposin” value in the assay with mCD1d is listed as “minimal or no activity”.

B3: Saposin B: recombinant purified human saposin B, lipid transfer protein (protein, UniProt P07602 195-273, looked up)
Saposin-B: GDVCQDCIQMVTDIQTAVRTNSTFVQALVEHVKEECDRLGPGMADICKNYISQYSEIAIQMMMHMQPKEICALVGFCDE
modifications: Saposin-B
notes: recombinant purified human saposin B, lipid transfer protein
Turning to B3, the “activity of purified saposin” value with mCD1d is “strongly active”.

B4: saposin D: recombinant purified human saposin D (protein, UniProt P07602 405-486, looked up)
Saposin-D: DGGFCEVCKKLVGYLDRNLEKNSTKQEILAALEKGCSFLPDPYQKQCDQFVAEYEPVLIEILVEVMDPSFVCLKIGACPSAH
modifications: Saposin-D
For the molecule B4, the “activity of purified saposin” value in the assay with mCD1d is given as “minimal or no activity”.
